In patent US20230001007A1, “Glycan-Interacting Compounds and Methods of Use” (Seagen Inc., priority 2017, published 2023):

Assays:
[1] = system: OVCAR3 human ovarian cancer cells; assay: OVCAR3 cell line-derived subcutaneous xenograft; assay type: in vivo, Athymic Nude mouse; conditions: 20 mg/kg intraperitoneally once per week for three weeks
Experimental: An Athymic Nude mouse subcutaneous xenograft mouse model was generated with OVCAR3 human ovarian cancer cells. Animals were treated with humanized anti-STn ADCs (1 mg/kg, 2.5 mg/kg, 5 mg/kg), an isotype ADC (1 mg/kg, 5 mg/kg), Paclitaxel (20 mg/kg) or vehicle alone. ADCs were administrated intravenously once per week for four weeks. Paclitaxel was administrated intraperitoneally once per week for three weeks. […] At the end of the study, tumor tissues were collected and analyzed using immunohistochemistry for expression of STn.

[2] = system: MDA-MB-231-STn cells; assay: Flow cytometry-based binding analysis; conditions: 0 to 300 nM, read-out: MDA-MB-231-STn cell binding [EC50 (nM)]
Experimental: Humanized IgG1 antibodies, prepared as described above, were subjected to characterization analysis including flow cytometry-based binding analysis with MDA-MB-231-STn cells; binding analysis by BSM ELISA; and glycan array analysis.
In flow cytometry-based binding studies, antibodies were screened over a concentration range of 0 to 300 nM, comparing binding to MDA-MB-231 cells with or without transfection-induced STn expression. Binding was determined using an anti-human APC conjugated secondary antibody and only live cells were considered (based on propidium iodide negative gating). 5,000 events were collected per sample on average. Data were analyzed using FlowJo software (Asland, Oreg.) and resulting APC means and % APC were obtained. […] Human isotype IgG1 antibody was used as an isotype negative control. Epidermal growth factor receptor (LA22, EMD Millipore, Billerica, Mass.) was used as a positive control.

[3] = system: bovine submaxillary mucin (BSM); assay: BSM ELISA, periodate-sensitive STn binding
Experimental: For BSM ELISA analysis, antibodies were screened over a concentration range of 0 to 100 nM on bovine submaxillary mucin (BSM) coated wells. A subset of wells were treated with mild periodate solution before antibody introduction to remove the side chain on terminal sialic acid residues (destroying the STn antigen). Optical densities of periodate and non-periodate-treated wells were determined and log transformed then fit to a nonlinear regression model to obtain a dose response curve. Optical density values obtained from periodate-treated wells were subtracted from non-periodate treated wells to obtain a periodate-sensitive STn binding curve and corresponding EC50 values.

[4] = system: array glycans (AcSTn, GcSTn, Tn and others); assay: Glycan array analysis; assay type: binding; parameters: key: Group 1: capable of binding AcSTn and GcSTn, if they bind to glycans 5, 6, 23 and 24; Group 2: capable of binding STn as well as some related structures that include an O-linkage to serine or threonine, if they bind to glycans 5, 6, 23, 24, 27 and 31; Group 3: capable of binding STn, but may also bind a broader set of related structures) if they bind glycans 5, 6, 23, 24, 17, 3, 19, 37, 27 and 31; Group 4: capable of binding to both AcSTn and GcSTn as well as the un-sialylated Tn antigen (therefore having broader specificity) if they bind to glycans 5, 6, 23, 24 and 47
Experimental: Optimized glycan arrays are utilized to test antibody affinity and specificity for multiple glycans in a single experiment. Glycan arrays include 71 chemically synthesized and well-defined glycans, most of which are Neu5Ac and Neu5Gc glycan pairs.
300 ml of epoxy blocking buffer is prepared by combining 15 ml of 2 M Tris buffer (pH 8) with 0.9 ml of 16.6 M ethanolamine and 284.1 ml of distilled water. The solution is brought to a final pH of 9.0 with HCl. The solution is filtered using a […] nitrocellulose membrane. The epoxy buffer solution as well as 1 L of distilled water are pre-warmed to 50° C. Glass slides are arranged in a slide holder and quickly submerged in a staining tub with the warmed epoxy blocking buffer. Slides are incubated in the epoxy blocking buffer for 1 hour at 50° C. with periodic shaking to deactivate epoxy binding sites. Next, slides are rinsed and blocked with PBS with 1% OVA at 25° C. for one hour. Serum samples with polyclonal antibodies (1:1000) or purified monoclonal antibodies (1 ug/mL), are diluted in PBS with 1% OVA and added to the glycan array for one hour at 25° C. After extensive washing, binding of antibodies are detected by incubating glycan microarray slides with Cy3-conjugated anti-mouse IgG (Jackson Immunoresearch, West Grove, Pa.) for one hour. Slides are then washed extensively, dried and scanned with a Genepix 4000B scanner (Laser at 100%; gain at 350; 10 μm pixels). Raw data from scanned images are extracted using the Genepix software and analysis of raw data is carried out.
Based on array analysis, antibodies are classified according to array glycan binding profile. Antibodies are classified as “Group 1” antibodies, capable of binding AcSTn and GcSTn, if they bind to glycans 5, 6, 23 and 24. Such antibodies are referred to as Pan-STn antibodies due to their ability to associate with a wider range of STn structures and the portion of STn indicated by the largest ellipse in FIG. 1A. […]

[5] = system: MDA-MB-231 cells transfected for enhanced expression of STn (STn positive cells); assay: ADC cytotoxicity assay ([…]-GLO); assay type: cell-based; conditions: MMAE-conjugated ADC versions; 72 hours; kill of STn positive cells
Experimental: MMAE-conjugated ADC versions of hSIA101, hSIA102, and hSIA103 were assessed in an ADC cytotoxicity assay using MDA-MB-231 cells (parental or transfected for enhanced expression of STn). Parental cells were grown in Eagle's Minimum Essential Medium (EMEM) supplemented with 10% FBS, lx Pen/Strep and 45 μg/mL gentamycin. STn positive cells were grown in the same media except with the addition of 1 mg/mL G418 for antibiotic selection. Cells were seeded separately (4,000 cells/well for parental cells or 2,000/well for STn positive cells) in 96-well plates using proper media described above. Cells were grown overnight. After 16-20 hours, cells were treated with varying concentrations of test antibodies in triplicate (50 nM to 0.012 nM) for 72 hours. Then, cells were analyzed using an ADC […]-GLO® luminescent cell viability assay kit (Promega, Madison, Wis.) to determine the amount of ATP present, an indicator of metabolically active cells. The assay uses a single reagent that is added directly to the cultured cells in serum-supplemented medium. The reagent lyses the cells and generates a luminescent signal proportional to the amount of ATP present. Luminescent signals were analyzed and used to calculate the half-maximal inhibitory concentration (IC50) values for each antibody used based on the concentration required to kill STn positive cells at half-maximal levels (see Table 9).

[6] = system: Primary patient CRC samples; assay: STn expression in primary patient CRC samples by flow cytometry; assay type: cell-based; conditions: % of viable CD45−/CD34− population
From the text: Primary patient CRC samples were probed by flow cytometry with hSIA101 and two commercial antibodies B72.3 and CC49. All 10 samples tested were STn positive. In the table, % STn is expressed as % of viable CD45−/CD34− population. STn expression was often more robustly identified with hSIA101 than the commercial antibodies.

`CC(=O)O[C@H]1C(=O)[C@@]2(C)[C@H]([C@H](OC(=O)c3ccccc3)[C@]3(O)C[C@H](OC(=O)[C@H](O)[C@@H](NC(=O)c4ccccc4)c4ccccc4)C(C)=C1C3(C)C)[C@]1(OC(C)=O)CO[C@@H]1C[C@@H]2O` [Paclitaxel] gave a Mean tumor volume ([1]; Day 1) of 161.2 mm^3, a Mean tumor volume ([1]; Day 4) of 210.0 mm^3 and a Mean tumor volume ([1]; Day 9) of 370.0 mm^3. For the same molecule, the Mean tumor volume ([1]; Day 12) was 482.3 mm^3, the Mean tumor volume ([1]; Day 15) was 620.4 mm^3 and the Mean tumor volume ([1]; Day 18) was 767.4 mm^3. It also gave a Mean tumor volume ([1]; Day 23) of 971.6 mm^3, a Mean tumor volume ([1]; Day 26) of 1133.0 mm^3 and a Mean tumor volume ([1]; Day 30) of 1277.8 mm^3. It also gave a Mean tumor volume ([1]; Day 31) of 1385.2 mm^3.

B1: hSIA102 (antibody, V domains shown)
VH: QVQLVQSGAEVKKPGASVKISCKASGYTFTDHAIHWVRQAPGQGLEWIGYFSPGNDDIKYNEKFKVRATLTADKSSSTAYMELRSLRSDDTAVYFCKRSYYGDWGQGTLVTVSS
VL: DIQMTQSPSSLSASVGDRVTITCRASENIYSHLAWYQQKPGKAPKLLVYGATNLASGVPSRFSGSGSGTQFTLTISSLQPEDFATYYCQHFWGAPFTFGQGTKVEIK
In the case of B1, the EC50 [2] is reported as 0.1 nM, the “periodate sensitivity of binding in ELISA assays” value [3] is reported as “not periodate sensitive” and the “Array glycan binding profile” value [4] is reported as “Group 4”. The IC50 [5] was 2.6 nM.

B2: hSIA103 (antibody, V domains shown)
VH: QVQLVQSGAEVKKPGASVKVSCKASGYTFTDHAIHWVRQAPGQGLEWMGYISPGNGDIKYNEKFKDRVTMTADKSSSTAYMQLRSLRSDDTAVYFCKRSLLALDYWGQGTLVTVSS
VL: DIQMTQSPSSLSASVGDRVTITCKASQDVGTNIAWYQQKPGKAPKVLIYSASTRHTGVPSRFSGSGSGTDFTLTISSLQPEDFATYFCQQYSSFPLTFGQGTKVEIK
In the case of B2, the EC50 [2] is reported as 0.3 nM, the EC50 ([3]; periodate-sensitive STn binding curve, 0 to 100 nM) is reported as 1.8 nM and the “Array glycan binding profile” value [4] is reported as “Group 1”. For the same molecule, the IC50 [5] was 1.3 nM.

B3: B72.3: commercial anti-STn antibody (antibody, chains of the INN, looked up, V domains shown)
VH: QVQLQQSDAELVKPGASVKISCKASGYTFTDHAIHWAKQKPEQGLEWIGYISPGNDDIKYNEKFKGKATLTADKSSSTAYMQLNSLTSEDSAVYFCKRSYYGHWGQGTTLTVSS
VL: DIQMTQSPASLSVSVGETVTITCRASENIYSNLAWYQQKQGKSPQLLVYAATNLADGVPSRFSGSGSGTQYSLKINSLQSEDFGSYYCQHFWGTPYTFGGGTRLEIK
For B3, the “% STn+” value ([6]; Sample 160093-2, Colon) was 18.9%, the “% STn+” value ([6]; Sample 160101-2, Colon) was 5.8% and the “% STn+” value ([6]; Sample 160102-2, Colon) was 14.7%. For the same molecule, the “% STn+” value ([6]; Sample 160104-2, Colon Met to Liver) was 46.6%, the “% STn+” value ([6]; Sample 160115-2, Colon) was 13% and the “% STn+” value ([6]; Sample 160127-2, Colon) was 14.4%. The “% STn+” value ([6]; Sample 160149-1, Colon) was 10.5%, the “% STn+” value ([6]; Sample 160151-1, Colon) was 6.8% and the “% STn+” value ([6]; Sample 169068-1, Colon) was 7.4%. The “% STn+” value ([6]; Sample 1601666, Colon) was 17.3%.
